Target: human CASKIN2 SAM1-SAM2 tandem (483-634), G537D/K540E double mutant (human) (UniProt Q8WXE0)
Assay: AUC; sedimentation velocity, 300 mM NaCl, 20 mM sodium phosphate pH 7.8, 20 °C, 50,000 rpm; 10 and 34 μM loading, Kd fitted from the 34 μM experiment; monomer-dimer equilibrium (dimer to monomers)

human CASKIN2 SAM1-SAM2 tandem (483-634), G537D/K540E double mutant (from UniProt Q8WXE0 483-634) (domain or fragment)
Kd: 99.8 µM
